Reference: paper PMC9574740
Where two headings read alike, the source gives them in different places.

Key:
Test in all cases: crystal structure
[1] = target: Chaetomium thermophilum Ahp1 C30S (Chaetomium thermophilum)
[2] = target: Chaetomium thermophilum Ahp1 C30S (Chaetomium thermophilum); remark: listed apart in the source
[3] = target: Chaetomium thermophilum Ahp1, wild type (Chaetomium thermophilum)

Row | stoichiometry N [1] | stoichiometry N [2] | stoichiometry N [3] | Substance
1 | 2 | 2 | – | Chaetomium thermophilum Ahp1 C30S (enzyme)
2 | – | – | 2 | Chaetomium thermophilum Ahp1, wild type (enzyme)
